In paper PMC9029106:

Biological target: SKP2 (UniProt Q13309)
Experiment: co-IP, blot for Myc and p27
Details: reference: wild-type p27; sites T187

Substance: p27 (Kip1) (from UniProt P46527) p27 T187A
- binding against the reference: lost
